Laboratory results reported in article PMC3401516.

What was measured:
ERK2 (Rattus norvegicus) = ERK2 (Rattus norvegicus) (UniProt P63086); details: cited from earlier work
[1] = molecular target: activated His6-tagged ERK2 (cleavable His6-tag construct, tag not cleaved) (Rattus norvegicus) (UniProt P63086); test: SEC-MALS

| Substance | Kd (ERK2 (Rattus norvegicus)) | percent dimer [1] | stoichiometry N [1] |
| --- | --- | --- | --- |
| ERK2 (from UniProt P63086) | 7 nM | – | – |
| activated His6-tagged ERK2 (cleavable His6-tag construct, tag not cleaved) (from UniProt P63086 1-358) (enzyme) | – | 30% | 2 |
